Data reported in publication PMC4711005, “LRRK2 phosphorylates pre-synaptic N-ethylmaleimide sensitive fusion (NSF) protein enhancing its ATPase activity and SNARE complex disassembling rate” (Molecular Neurodegeneration, 2016).

Target: the molecule itself
Assay: negative-stain transmission electron microscopy; purified NSF incubated with 1 mM ATP and 2 mM MgCl2, adsorbed to carbon-coated grids, stained with 1 % uranyl acetate

Row | Protein | stoichiometry N
1 | Flag-NSF full-length (human, aa 1-744) (enzyme, UniProt P46459 1-744, looked up, N-ethylmaleimide sensitive fusion protein (NSF), human, full-length, aa 1-744; Cloned into the p3XFLAG-CMV-7.1 vector; also called 3xFlag-NSF wt; NSF wild-type; source: kept on the resin or eluted with 3xFlag peptide; also in HEK293T lysate; not shown: Flag, N-terminal, kept) MAGRSMQAARCPTDELSLTNCAVVNEKDFQSGQHVIVRTSPNHRYTFTLKTHPSVVPGSIAFSLPQRKWAGLSIGQEIEVSLYTFDKAKQCIGTMTIEIDFLQKKSIDSNPYDTDKMAAEFIQQFNNQAFSVGQQLVFSFNEKLFGLLVKDIEAMDPSILKGEPATGKRQKIEVGLVVGNSQVAFEKAENSSLNLIGKAKTKENRQSIINPDWNFEKMGIGGLDKEFSDIFRRAFASRVFPPEIVEQMGCKHVKGILLYGPPGCGKTLLARQIGKMLNAREPKVVNGPEILNKYVGESEANIRKLFADAEEEQRRLGANSGLHIIIFDEIDAICKQRGSMAGSTGVHDTVVNQLLSKIDGVEQLNNILVIGMTNRPDLIDEALLRPGRLEVKMEIGLPDEKGRLQILHIHTARMRGHQLLSADVDIKELAVETKNFSGAELEGLVRAAQSTAMNRHIKASTKVEVDMEKAESLQVTRGDFLASLENDIKPAFGTNQEDYASYIMNGIIKWGDPVTRVLDDGELLVQQTKNSDRTPLVSVLLEGPPHSGKTALAAKIAEESNFPFIKICSPDKMIGFSETAKCQAMKKIFDDAYKSQLSCVVVDDIERLLDYVPIGPRFSNLVLQALLVLLKKAPPQGRKLLIIGTTSRKDVLQEMEMLNAFSTTIHVPNIATGEQLLEALELLGNFKDKERTTIAQQVKGKKVWIGIKKLLMLIEMSLQMDPEYRVRKFLALLREEGASPLDFD | 6
2 | NSF T645A (enzyme, human, UniProt P46459 1-744, looked up, NSF, human, phospho-deficient mutant T645A of the NSF wild-type construct (full-length aa 1-744), made by QuickChange mutagenesis; source: HEK293T, expressed and purified) MAGRSMQAARCPTDELSLTNCAVVNEKDFQSGQHVIVRTSPNHRYTFTLKTHPSVVPGSIAFSLPQRKWAGLSIGQEIEVSLYTFDKAKQCIGTMTIEIDFLQKKSIDSNPYDTDKMAAEFIQQFNNQAFSVGQQLVFSFNEKLFGLLVKDIEAMDPSILKGEPATGKRQKIEVGLVVGNSQVAFEKAENSSLNLIGKAKTKENRQSIINPDWNFEKMGIGGLDKEFSDIFRRAFASRVFPPEIVEQMGCKHVKGILLYGPPGCGKTLLARQIGKMLNAREPKVVNGPEILNKYVGESEANIRKLFADAEEEQRRLGANSGLHIIIFDEIDAICKQRGSMAGSTGVHDTVVNQLLSKIDGVEQLNNILVIGMTNRPDLIDEALLRPGRLEVKMEIGLPDEKGRLQILHIHTARMRGHQLLSADVDIKELAVETKNFSGAELEGLVRAAQSTAMNRHIKASTKVEVDMEKAESLQVTRGDFLASLENDIKPAFGTNQEDYASYIMNGIIKWGDPVTRVLDDGELLVQQTKNSDRTPLVSVLLEGPPHSGKTALAAKIAEESNFPFIKICSPDKMIGFSETAKCQAMKKIFDDAYKSQLSCVVVDDIERLLDYVPIGPRFSNLVLQALLVLLKKAPPQGRKLLIIGATSRKDVLQEMEMLNAFSTTIHVPNIATGEQLLEALELLGNFKDKERTTIAQQVKGKKVWIGIKKLLMLIEMSLQMDPEYRVRKFLALLREEGASPLDFD | 6
